One molecule from US20130331333A1 (HADASIT MEDICAL RESEARCH SERVICES AND DEVELOPMENT, published 2013) can be followed below.

Test [1] concerns the target Akt (PKB) (UniProt P31749 1-480, limits assumed). Briefly: co-immunoprecipitation of Akt and PAR1 in transfected HU cells. The protocol: Western blot and immunoprecipitation analysis: Cells were activated with agonist peptide […] (SEQ ID NO: 35) for the indicated periods of time and solubilized in lysis buffer containing 10 mM Tris-HCl, pH 7.4, 150 mM NaCl, 1 mM EDTA, 1% TritonX-100, and protease inhibitors ([…] aprotinin, 1 mM phenylmethylsulfonylfluoride, and […] leupeptin) at 4° C. for 30 min. The cell lysates were subjected to centrifugation at 12,000 rpm at 4° C. for 20 min. We used 400 μg of the supernatants with anti-PAR₁ (ATAP, Santa Cruz, Calif. 1 μg), anti-HA (anti-HA sc-7392; Santa Cruz, Calif.), anti-Shc or Etk/Bmx antibodies (10 μg/ml). After overnight incubation, Protein A-Sepharose beads (Amersham Pharmacia Biotech, Buckinghamshire, UK) were added to the suspension (50 μl), which was rotated at 4° C. for 1 h. The immunocomplexes were eluted and run electrophoretically on a 10% SDS-PAGE gel, followed by transfer to an Immobilon-P membrane (Millipore). […] Immunoreactive bands were detected by enhanced chemiluminescence (ECL). […]
Namely, without wishing to be bound by theory the PAR₁-C-tail appears to be an anchor region for association with PH-domain containing proteins. For this purpose, the association between Akt (which is ubiquitously expressed in the cells) and PAR₁ was analyzed, following activation. […]

For test [2], the target named is T1, Etk/Bmx (epithelial tyrosine kinase), wild type (UniProt P51813 1-675).
T1 construct: Plasmids after Tsai et al. 2000; also called wt-Etk
T1 sequence (looked up): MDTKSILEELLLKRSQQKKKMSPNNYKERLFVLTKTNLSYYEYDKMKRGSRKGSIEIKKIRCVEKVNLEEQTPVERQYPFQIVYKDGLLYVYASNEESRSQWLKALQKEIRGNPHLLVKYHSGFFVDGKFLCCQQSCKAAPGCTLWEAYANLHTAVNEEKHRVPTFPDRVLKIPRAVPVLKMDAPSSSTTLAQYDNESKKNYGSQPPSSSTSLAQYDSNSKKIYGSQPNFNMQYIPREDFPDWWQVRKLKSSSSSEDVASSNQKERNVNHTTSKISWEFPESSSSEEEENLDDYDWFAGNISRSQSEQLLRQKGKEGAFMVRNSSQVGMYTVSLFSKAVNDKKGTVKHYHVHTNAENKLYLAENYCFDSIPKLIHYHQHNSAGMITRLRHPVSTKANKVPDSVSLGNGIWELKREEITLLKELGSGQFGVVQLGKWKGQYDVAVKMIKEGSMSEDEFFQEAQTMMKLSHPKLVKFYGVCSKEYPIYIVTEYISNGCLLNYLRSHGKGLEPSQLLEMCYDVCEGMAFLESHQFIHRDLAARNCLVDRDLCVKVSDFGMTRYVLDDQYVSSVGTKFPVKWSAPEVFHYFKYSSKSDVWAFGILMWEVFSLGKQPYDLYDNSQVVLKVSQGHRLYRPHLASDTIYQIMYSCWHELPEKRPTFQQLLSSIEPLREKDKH
The test is described as follows: co-immunoprecipitation with anti-HA, anti-Bmx blot, MCF7 clones after PAR1 activation. The protocol:
After overnight incubation, Protein A-Sepharose beads (Amersham Pharmacia Biotech, Buckinghamshire, UK) were added to the suspension (50 μl), which was rotated at 4° C. for 1 h. The immunocomplexes were eluted and run electrophoretically on a 10% SDS-PAGE gel, followed by transfer to an Immobilon-P membrane (Millipore). Membranes were blocked and probed with 1 μg/ml amounts of the appropriate antibodies as follows: anti-PAR₁ thrombin receptor mAb, (ATAP, from Santa Cruz, 1:1000); anti-Shc (BD, 1:2000); anti-Bmx (Transduction Laboratories, 1:1000) or anti-PY (Upstate 4G10, 1:2500), suspended in 3% BSA in 10 mM Tris-HCl, pH 7.5, 100 mM NaCl, and 0.5% Tween-20. After washes the blots were incubated with secondary antibodies conjugated to horseradish-peroxidase. Immunoreactive bands were detected by enhanced chemiluminescence (ECL). Membranes were stripped and incubated with anti-IP antibodies to ensure equal protein load.
Based on the competition assay mutated hPar1 constructs with successive replacement of seven residues (378-384; CQRYVYS) were prepared. […] The clones expressing either HA-tagged wt hPar1 or a mutant construct of HA-hPar1-7A were activated and further analyzed for co-immunoprecipitation (IP) of PAR₁ with Etk/Bmx. […] The blots were detected by anti-Bmx (Transduction Laboratories, BD Biosciences, CA) for the identification of Etk/Bmx-associated PAR₁. […]

Sequence of Akt (PKB) (P31749 whole entry): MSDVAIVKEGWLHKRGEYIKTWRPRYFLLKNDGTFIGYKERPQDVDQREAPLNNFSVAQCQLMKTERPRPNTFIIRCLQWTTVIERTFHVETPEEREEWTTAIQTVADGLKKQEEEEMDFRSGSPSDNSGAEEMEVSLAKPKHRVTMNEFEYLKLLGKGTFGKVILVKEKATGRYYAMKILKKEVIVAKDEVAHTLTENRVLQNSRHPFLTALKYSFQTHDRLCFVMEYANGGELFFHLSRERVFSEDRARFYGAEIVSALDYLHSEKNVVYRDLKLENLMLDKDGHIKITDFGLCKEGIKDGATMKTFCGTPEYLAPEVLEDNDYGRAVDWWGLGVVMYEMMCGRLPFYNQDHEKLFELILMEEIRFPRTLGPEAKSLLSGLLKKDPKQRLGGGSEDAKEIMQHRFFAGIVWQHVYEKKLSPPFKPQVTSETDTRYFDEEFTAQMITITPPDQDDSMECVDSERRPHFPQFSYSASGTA

B1: HA-tagged mutant hPar1-7A (receptor, human, UniProt P25116 42-425, looked up)
chain: SFLLRNPNDKYEPFWEDEEKNESGLTEYRLVSINKSSPLQKQLPAFISEDASGYLTSSWLTLFVPSVYTGVFVVSLPLNIMAIVVFILKMKVKKPAVVYMLHLATADVLFVSVLPFKISYYFSGSDWQFGSELCRFVTAAFYCNMYASILLMTVISIDRFLAVVYPMQSLSWRTLGRASFTCLAIWALAIAGVVPLLLKEQTIQVPGLNITTCHDVLNETLLEGYYAYYFSAFSAVFFFVPLIISTVCYVSIIRCLSSSAVANRSKKSRALFLSAAVFCIFIICFGPTNVLLIAHYSFLSHTSTTEAAYFAYLLCVCVSSISCCIDPLIYYYASSEAAAAAAAILCCKESSDPSSYNSSGQLMASKMDTCSSNLNNSIYKKLLT
notes: whole, on cells; Tested in lysates of transfected cells; also called HA-hPar1-7A; PAR1A7; not shown: HA tag
Take B1: the binding result in test [1] and in test [2] was “no binding” in each case.
